This is an account of results in article PMC9963953, “Structures of MPND Reveal the Molecular Recognition of Nucleosomes”.

The data set addresses T1, MPND 54-163 (RAMA domain, crystal) (Mus musculus, UniProt Q3TV65 54-163).
T1 sequence: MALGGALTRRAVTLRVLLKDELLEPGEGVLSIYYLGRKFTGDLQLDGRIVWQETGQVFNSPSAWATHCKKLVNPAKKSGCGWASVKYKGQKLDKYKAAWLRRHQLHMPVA
Put plainly: X-ray crystallography (2.47 A); EMSA: 20 mM HEPES pH 7.2, 100 mM NaCl, 2 mM DTT, 0.1% NP-40, 20 uM protein, 5 uM DNA, on ice; MST: 20 mM HEPES pH 7.2, 100 mM NaCl, 0.1% NP-40, 22 C; pull-down: 20 mM HEPES pH 7.2, 0.15 M NaCl, 1 mM DTT, 4 C. Conditions: protein: recombinant; tags: tag removed with TEV; 18 bp, 5' overhangs 1 nt. In general terms: A gel shift assay detects complexes by their altered migration in electrophoresis.

B1: crystallization dsDNA (dsDNA)
DNA 1: CAGCAACAGAAGAGGATCT
DNA 2: GAGATCCTCTTCTGTTGCT
B1: the binding result is “binds”.
